The values that follow come from patent US20230312709A1 (GUANGDONG FEIPENG PHARMACEUTICAL, published 2023).

Like-named read-outs stand apart in the source and are kept apart here.

The target in assay [1] is T1, human CD47 on CCRF-CEM cells (human, UniProt Q08722 19-323).
T1 construct: whole, on cells
Put plainly: flow cytometry competition on CCRF-CEM cells; blocked ligand hSIRPα-mFC, detected with PE goat anti-mouse IgG Fc. On the technique in general: Flow cytometry measures light scatter and fluorescence of single cells or particles in a stream.

Assay [2] has as its target T2, monkey CD47 on CHO-cynoCD47 cells (monkey).
T2 construct: whole, on cells; Cell line named CHO-cynoCD47; the text calls the species 'monkey'
The assay can be described thus: flow cytometry on CHO-cynoCD47 cells, MFI curve.
Procedure: Then, the cells were washed at least twice, a PE Goat anti human IgG Fc (1:500× dilution) fluorescent secondary antibody was prepared with a FCM buffer (1×PBS+3% BSA), added to a corresponding 96-well plate according to 100 μL/well, and incubated in a refrigerator at 4° C. for 30 min. The 96-well plate was taken out, and centrifuged at 250 g for 5 min, after a supernatant was carefully removed, the FCM buffer was added at 200 μL/well, and it was centrifuged again at 250 g for 5 min, the supernatant was carefully removed. The cells were washed at least twice and resuspended with 1×PBS at 100 μL/well, and analyzed by the flow cytometry, and a concentration-dependent curve was fitted with GraphPad according to MFI thereof.

The target in assay [3] is T1, human CD47 on CCRF-CEM cells. Put plainly: flow cytometry on CCRF-CEM cells, MFI curve.
Procedure: The specific steps were as follows.
A cell line CCRF-CEM (Cell Bank of Chinese Academy of Sciences, Shanghai) expressing human CD47 was used, which belongs to human acute lymphoblastic leukemia T lymphocytes. […] Then, the cells were washed at least twice, a PE Goat anti human IgG Fc (1:500× dilution) fluorescent secondary antibody was prepared with a FCM buffer (1×PBS+3% BSA), added to a corresponding 96-well plate according to 100 μL/well, and incubated in a refrigerator at 4° C. for 30 min. The 96-well plate was taken out, and centrifuged at 250 g for 5 min, after a supernatant was carefully removed, the FCM buffer was added at 200 μL/well, and it was centrifuged again at 250 g for 5 min, the supernatant was carefully removed. The cells were washed at least twice and resuspended using 100 μL/well 1×PBS, and analyzed by the flow cytometry, and a concentration-dependent curve was fitted with GraphPad according to the mean fluorescence intensity (MFI) thereof.
Assay [4] deals with T3, hCD47-ECD-HIS recombinant protein (human, UniProt Q08722 19-139, limits assumed).
T3 construct: extracellular domain; also called hCD47 antigen; CD47 antigen
Put plainly: BLI (ForteBio), antibody on AHC sensor, 100 nM CD47 antigen, 1:1 model.
Procedure: An equilibrium dissociation constant (KD) of the antibody of the present application binding to human CD47 (hCD47) was determined by a biofilm interferometry (ForteBio). […] Kinetic analysis was performed with a 1:1 binding model.

In assay [5] the target is T1, human CD47 on CCRF-CEM cells. The assay can be described thus: flow cytometry competition on CCRF-CEM cells; blocked ligand hSIRPα-mFC, detected with PE goat anti-mouse IgG Fc. The source holds these as a separate data set.

By EC50 is commonly meant the midpoint of the concentration-response curve. In general, Kd refers to the free concentration of one partner at which half of the binding sites on the other are occupied at equilibrium, for simple one-to-one binding. As a reminder, the koff is a measure of how fast the partners let go of each other. A word on the kon: it is the rate constant with which the complex forms.

B1: 7A11H32 (antibody, V domains shown)
VH: QVQLVQSGAEVKKPGSSVKVSCKASGSSFTSNWMNWVRQAPGQGLEWIGMIHPSDSETRLNQKFKDRVTITADKSTSTAYMELSSLRSEDTAVYYCARGTTVVDAFAYWGQGTTVTVSS
VL: DIQMTQSPSSLSASVGDRVTMTCKSSQSLLNSRTRKNYLAWYQQKPGKAPKLLIYWASTRESGVPSRFSGSGSGTDFTLTISSLQPEDFATYYCKQSYNLRTFGGGTKLEIK
notes: also called CD47 antibody
Turning to B1, in assay [1], the “IC50 (read off the curve)” value was approximately 2 nM. The EC50 in assay [2] is 17.1 nM; in assay [3] it was 0.717 nM.

B2: 7A11H22 (antibody, V domains shown)
VH: QVQLVQSGAEVKKPGASVKVSCKASGSSFTSNWMNWVRQAPGQGLEWIGMIHPSDSETRLNQKFKDRATLTVDKSTSTAYMELSSLRSEDTAVYYCARGTTVVDAFAYWGQGTTVTVSS
VL: DIQMTQSPSSLSASVGDRVTMTCKSSQSLLNSRTRKNYLAWYQQKPGKAPKLLIYWASTRESGVPSRFSGSGSGTDFTLTISSLQPEDFATYYCKQSYNLRTFGGGTKLEIK
notes: also called CD47 antibody
Regarding B2, in assay [4], the Kd came to 0.74 nM. Further, in assay [1], the “IC50 (read off the curve)” value is approximately 2 nM. Also, the EC50 turned out to be 8.55 nM in assay [2] and 0.82 nM in assay [3].

B3: 7A11H14 (antibody, V domains shown)
VH: QVQLVQPGAEVKKPGASVKLSCKASGSSFTSNWMNWVRQAPGQGLEWIGMIHPSDSETRLNQKFKDRATLTVDKSTSTAYMELSSPRSEDTAVYYCARGTTVVDAFAYWGQGTTVTVSS
VL: DIVMTQSPDSLAVSLGERATMNCKSSQSLLNTRTRKNYLAWYQQKPGQPPKLLIYWASTRESGVPDRFSGSGSGTDFTLTISSLQAEDVAVYYCKQSYNLRTFGGGTKLEIK
notes: also called CD47 antibody
With B3, in assay [4], the Kd was 0.562 nM. Further, the EC50 in assay [2] is 4.96 nM; in assay [3], 0.933 nM.

B4: 7A11H11 (antibody, V domains shown)
VH: QVQLVQPGAEVKKPGASVKLSCKASGSSFTSNWMNWVRQAPGQGLEWIGMIHPSDSETRLNQKFKDRATLTVDKSTSTAYMELSSPRSEDTAVYYCARGTTVVDAFAYWGQGTTVTVSS
VL: DIVMTQSPDSLAVSLGERATMNCKSSQSLLNSRTRKNYLAWYQQKPGQPPKLLIYWASTRESGVPDRFSGSGSGTDFTLTISSLQAEDVAVYYCKQSYNLRTFGGGTKLEIK
notes: also called CD47 antibody
In the case of B4, the equilibrium dissociation constant (Kd) in assay [4] came to 0.59 nM. Besides, in assay [1], the “IC50 (read off the curve)” value was approximately 2 nM. Moreover, the EC50 in assay [2] was determined as 8.93 nM; in assay [3] it was 0.822 nM.

B5: 7A11H35 (antibody, V domains shown)
VH: QVQLVQSGAEVKKPGSSVKVSCKASGSSFTSNWMNWVRQAPGQGLEWIGMIHPSDSETRLNQKFKDRVTITADKSTSTAYMELSSLRSEDTAVYYCARGTTVVDAFAYWGQGTTVTVSS
VL: EIVMTQSPPTLSLSPGERVTMSCKSSQSLLNSRTRKNYLAWYQQKPGQAPRLLIYWASTRESGIPARFSGSGSGTDFTLTISSLQPEDFAVYYCKQSYNLRTFGGGTKLEIK
notes: also called CD47 antibody
B5: the Kd in assay [4] was determined as 0.881 nM. Moreover, the EC50 in assay [2] came out at 4.38 nM; in assay [3], 0.862 nM.

B6: 7A11H15 (antibody, V domains shown)
VH: QVQLVQPGAEVKKPGASVKLSCKASGSSFTSNWMNWVRQAPGQGLEWIGMIHPSDSETRLNQKFKDRATLTVDKSTSTAYMELSSPRSEDTAVYYCARGTTVVDAFAYWGQGTTVTVSS
VL: EIVMTQSPPTLSLSPGERVTMSCKSSQSLLNSRTRKNYLAWYQQKPGQAPRLLIYWASTRESGIPARFSGSGSGTDFTLTISSLQPEDFAVYYCKQSYNLRTFGGGTKLEIK
notes: also called CD47 antibody
For the molecule B6, in assay [4], the Kd was determined as 0.212 nM, the koff was determined as 0.000313 s⁻¹ and the kon turned out to be 1.48e+06 M⁻¹ s⁻¹. In addition, the EC50 in assay [2] is 7.27 nM. The molecule further came in with an EC50 in assay [3] of 0.723 nM. For the same molecule, the “IC50 (read off the curve)” value in assay [5] was approximately 2 nM.

B7: 7A11H34 (antibody, V domains shown)
VH: QVQLVQSGAEVKKPGSSVKVSCKASGSSFTSNWMNWVRQAPGQGLEWIGMIHPSDSETRLNQKFKDRVTITADKSTSTAYMELSSLRSEDTAVYYCARGTTVVDAFAYWGQGTTVTVSS
VL: DIVMTQSPDSLAVSLGERATMNCKSSQSLLNTRTRKNYLAWYQQKPGQPPKLLIYWASTRESGVPDRFSGSGSGTDFTLTISSLQAEDVAVYYCKQSYNLRTFGGGTKLEIK
notes: also called CD47 antibody
In the case of B7, the EC50 in assay [2] stood at 8.61 nM; in assay [3], 1.2 nM.

B8: 7A11H12 (antibody, V domains shown)
VH: QVQLVQPGAEVKKPGASVKLSCKASGSSFTSNWMNWVRQAPGQGLEWIGMIHPSDSETRLNQKFKDRATLTVDKSTSTAYMELSSPRSEDTAVYYCARGTTVVDAFAYWGQGTTVTVSS
VL: DIQMTQSPSSLSASVGDRVTMTCKSSQSLLNSRTRKNYLAWYQQKPGKAPKLLIYWASTRESGVPSRFSGSGSGTDFTLTISSLQPEDFATYYCKQSYNLRTFGGGTKLEIK
notes: also called CD47 antibody
For the molecule B8, in assay [4], the Kd came out at 0.459 nM. The “IC50 (read off the curve)” value in assay [1] is approximately 0.9 nM. Also, the EC50 stood at 7.35 nM in assay [2] and 0.716 nM in assay [3].

B9: 7A11H52 (antibody, V domains shown)
VH: QVQLVQSGAEVKKPGSSVKVSCKASGGTFTSNWMNWVRQAPGQGLEWIGMIHPSDSETRLNQKFQGRVTITADKSTSTAYMELSSLRSEDTAVYYCARGTTVVDAFAYWGQGTTVTVSS
VL: DIQMTQSPSSLSASVGDRVTMTCKSSQSLLNSRTRKNYLAWYQQKPGKAPKLLIYWASTRESGVPSRFSGSGSGTDFTLTISSLQPEDFATYYCKQSYNLRTFGGGTKLEIK
notes: also called CD47 antibody
B9: the EC50 in assay [2] worked out at 4.51 nM; in assay [3] it was 0.915 nM.

B10: 7A11H55 (antibody, V domains shown)
VH: QVQLVQSGAEVKKPGSSVKVSCKASGGTFTSNWMNWVRQAPGQGLEWIGMIHPSDSETRLNQKFQGRVTITADKSTSTAYMELSSLRSEDTAVYYCARGTTVVDAFAYWGQGTTVTVSS
VL: EIVMTQSPPTLSLSPGERVTMSCKSSQSLLNSRTRKNYLAWYQQKPGQAPRLLIYWASTRESGIPARFSGSGSGTDFTLTISSLQPEDFAVYYCKQSYNLRTFGGGTKLEIK
notes: also called CD47 antibody
Turning to B10, the EC50 in assay [2] was 4.62 nM; in assay [3], 1.21 nM.

B11: 7A11H33 (antibody, V domains shown)
VH: QVQLVQSGAEVKKPGSSVKVSCKASGSSFTSNWMNWVRQAPGQGLEWIGMIHPSDSETRLNQKFKDRVTITADKSTSTAYMELSSLRSEDTAVYYCARGTTVVDAFAYWGQGTTVTVSS
VL: DIQMTQSPSSLSASVGDRVTMTCKSSQSLLNTRTRKNYLAWYQQKPGKAPKLLIYWASTRESGVPSRFSGSGSGTDFTLTISSLQPEDFATYYCKQSYNLRTFGGGTKLEIK
notes: also called CD47 antibody
For B11, the Kd in assay [4] was 0.36 nM. Further, the EC50 in assay [2] is 4.85 nM; in assay [3] it was 0.76 nM.

B12: 7A11H42 (antibody, V domains shown)
VH: QVQLVQSGAEVKKPGSSVKVSCKASGSSFTSNWMNWVRQAPGQGLEWIGMIHPSDSETRLNQKFQGRVTITADKSTSTAYMELSSLRSEDTAVYYCARGTTVVDAFAYWGQGTTVTVSS
VL: DIQMTQSPSSLSASVGDRVTMTCKSSQSLLNSRTRKNYLAWYQQKPGKAPKLLIYWASTRESGVPSRFSGSGSGTDFTLTISSLQPEDFATYYCKQSYNLRTFGGGTKLEIK
notes: also called CD47 antibody
On to B12, for which, in assay [4], the Kd amounted to 0.309 nM. Moreover, in assay [1], the “IC50 (read off the curve)” value was approximately 2 nM. The EC50 was found to be 5 nM in assay [2] and 0.727 nM in assay [3].

B13: Hu5F9-G4 (antibody, V domains shown)
VH: QVQLVQSGAEVKKPGASVKVSCKASGYTFTNYNMHWVRQAPGQRLEWMGTIYPGNDDTSYNQKFKDRVTITADTSASTAYMELSSLRSEDTAVYYCARGGYRAMDYWGQGTLVTVSS
VL: DIVMTQSPLSLPVTPGEPASISCRSSQSIVYSNGNTYLGWYLQKPGQSPQLLIYKVSNRFSGVPDRFSGSGSGTDFTLKISRVEAEDVGVYYCFQGSHVPYTFGQGTKLEIKR
For the molecule B13, in assay [2], the EC50 came out at 5.12 nM.
